Measured values from paper PMC10397247.

Columns and labels:
[1] = target: T1, 4H3628-AA; assay: two-hybrid library CCmax; details: mean of both orientations;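 note: natural log of median RNA to DNA barcode read ratio; higher means stronger binding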
T1 chain: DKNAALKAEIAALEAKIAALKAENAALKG

[2] = target: T2, 4H656-AA; assay: two-hybrid library CCmax; details: mean of both orientations;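 note: natural log of median RNA to DNA barcode read ratio; higher means stronger binding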
T2 chain: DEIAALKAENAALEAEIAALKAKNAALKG

[3] = target: T3, 4H2742-AA; assay: two-hybrid library CCmax; details: mean of both orientations;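 note: natural log of median RNA to DNA barcode read ratio; higher means stronger binding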
T3 chain: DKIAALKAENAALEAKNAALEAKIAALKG

[4] = target: T4, 4H3666-AA; assay: two-hybrid library CCmax; details: mean of both orientations;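 note: natural log of median RNA to DNA barcode read ratio; higher means stronger binding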
T4 chain: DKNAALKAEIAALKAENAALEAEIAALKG

[5] = target: T5, 4H1854-AA; assay: two-hybrid library CCmax; details: mean of both orientations;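 note: natural log of median RNA to DNA barcode read ratio; higher means stronger binding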
T5 chain: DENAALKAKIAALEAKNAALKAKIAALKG

[6] = target: T6, 4H3920-AA; assay: two-hybrid library CCmax; details: mean of both orientations;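 note: natural log of median RNA to DNA barcode read ratio; higher means stronger binding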
T6 chain: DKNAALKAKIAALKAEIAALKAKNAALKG

[7] = target: T7, 4H428-AA; assay: two-hybrid library CCmax; details: mean of both orientations
T7 chain: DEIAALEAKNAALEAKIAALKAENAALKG

[8] = target: T8, 4H3591-AA; assay: two-hybrid library CCmax; details: mean of both orientations
T8 chain: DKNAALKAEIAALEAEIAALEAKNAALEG

[9] = target: T9, 4H1391-AA; assay: two-hybrid library CCmax
T9 chain: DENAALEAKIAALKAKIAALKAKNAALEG

[10] = target: T10, 4H3121-AA; assay: two-hybrid library CCmax; details: mean of both orientations
T10 chain: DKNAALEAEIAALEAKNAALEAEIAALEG

[11] = target: T11, 4H1809-AA; assay: two-hybrid library CCmax; details: mean of both orientations
T11 chain: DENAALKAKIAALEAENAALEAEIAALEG

[12] = target: T12, 4H391-AA; assay: two-hybrid library CCmax; details: mean of both orientations
T12 chain: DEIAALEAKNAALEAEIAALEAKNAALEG

[13] = target: T13, 4H497-AA; assay: two-hybrid library CCmax; details: mean of both orientations
T13 chain: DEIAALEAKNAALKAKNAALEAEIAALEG

[14] = target: T14, 4H675-AA; assay: two-hybrid library CCmax; details: mean of both orientations
T14 chain: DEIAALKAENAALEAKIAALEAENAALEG

[15] = target: T15, 4H2948-AA; assay: two-hybrid library CCmax; details: mean of both orientations
T15 chain: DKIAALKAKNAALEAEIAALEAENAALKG

[16] = target: T16, 4H3446-AA; assay: two-hybrid library CCmax
T16 chain: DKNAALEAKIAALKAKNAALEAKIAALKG

[17] = target: T17, 4H2713-AA; assay: two-hybrid library CCmax; details: mean of both orientations
T17 chain: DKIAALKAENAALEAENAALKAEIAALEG

[18] = target: T18, 4H1348-AA; assay: two-hybrid library CCmax; details: mean of both orientations
T18 chain: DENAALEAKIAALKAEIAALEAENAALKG

[19] = target: T19, 4H478-AA; assay: two-hybrid library CCmax; details: mean of both orientations
T19 chain: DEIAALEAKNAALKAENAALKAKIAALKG

[20] = target: T20, 4H3709-AA; assay: two-hybrid library CCmax; details: mean of both orientations
T20 chain: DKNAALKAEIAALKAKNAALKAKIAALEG

[21] = target: T21, 4H3939-AA; assay: two-hybrid library CCmax; details: mean of both orientations
T21 chain: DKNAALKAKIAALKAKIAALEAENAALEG

[22] = target: T22, 4H3029-AA; assay: two-hybrid library CCmax; details: mean of both orientations
T22 chain: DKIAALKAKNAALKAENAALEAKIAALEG

[23] = target: T23, 4H146-AA; assay: two-hybrid library CCmax; details: mean of both orientations
T23 chain: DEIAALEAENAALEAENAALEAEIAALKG

[24] = target: T24, 4H3102-AA; assay: two-hybrid library CCmax; details: mean of both orientations
T24 chain: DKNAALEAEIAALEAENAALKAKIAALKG

[25] = target: T25, 4H3417-AA; assay: two-hybrid library CCmax; details: mean of both orientations
T25 chain: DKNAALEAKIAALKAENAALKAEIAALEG

[26] = target: T26, 4H1146-AA; assay: two-hybrid library CCmax
T26 chain: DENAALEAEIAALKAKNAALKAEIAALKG

[27] = target: T27, 4H971-AA; assay: two-hybrid library CCmax; details: mean of both orientations
T27 chain: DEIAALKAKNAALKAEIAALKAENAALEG

[28] = target: T28, 4H2283-AA; assay: two-hybrid library CCmax; details: mean of both orientations
T28 chain: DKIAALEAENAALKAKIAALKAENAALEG

[29] = target: T29, 4H2248-AA; assay: two-hybrid library CCmax; details: mean of both orientations
T29 chain: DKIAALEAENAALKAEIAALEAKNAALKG

[30] = target: T30, 4H3066-AA; assay: two-hybrid library CCmax; details: mean of both orientations
T30 chain: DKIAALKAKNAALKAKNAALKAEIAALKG

[31] = target: T31, 4H189-AA; assay: two-hybrid library CCmax; details: mean of both orientations
T31 chain: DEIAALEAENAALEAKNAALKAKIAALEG

[32] = target: T32, 4H2991-AA; assay: two-hybrid library CCmax; details: mean of both orientations
T32 chain: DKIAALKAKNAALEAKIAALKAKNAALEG

[33] = target: T33, 4H2438-bN; assay: two-hybrid library CCNG1
T33 chain: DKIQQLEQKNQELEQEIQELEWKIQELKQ

[34] = target: T34, 4H2839-bN; assay: two-hybrid library CCNG1
T34 chain: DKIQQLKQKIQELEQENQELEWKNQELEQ

[35] = target: T35, 4H3381-bH; assay: two-hybrid library CCNG1
T35 chain: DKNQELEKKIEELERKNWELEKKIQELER

[36] = target: T36, 4H3057-bN; assay: two-hybrid library CCNG1
T36 chain: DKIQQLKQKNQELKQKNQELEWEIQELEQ

[37] = target: T37, 4H741-bN; assay: two-hybrid library CCNG1
T37 chain: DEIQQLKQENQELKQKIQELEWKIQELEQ

[38] = target: T38, 4H2503-bN; assay: two-hybrid library CCNG1
T38 chain: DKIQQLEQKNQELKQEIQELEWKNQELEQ

[39] = target: T39, 4H2692-bN; assay: two-hybrid library CCNG1
T39 chain: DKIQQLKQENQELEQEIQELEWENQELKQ

[40] = target: T40, 4H3277-bN; assay: two-hybrid library CCNG1
T40 chain: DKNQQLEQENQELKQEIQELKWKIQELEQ

[41] = target: T41, 4H2915-bN; assay: two-hybrid library CCNG1
T41 chain: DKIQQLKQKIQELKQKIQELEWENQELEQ

[42] = target: T42, 4H40-bN; assay: two-hybrid library CCNG1
T42 chain: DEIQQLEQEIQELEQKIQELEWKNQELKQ

[43] = target: T43, 4H492-bN; assay: two-hybrid library CCNG1
T43 chain: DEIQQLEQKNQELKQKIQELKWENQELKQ

[44] = target: T44, 4H2473-bN; assay: two-hybrid library CCNG1
T44 chain: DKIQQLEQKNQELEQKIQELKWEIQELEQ

[45] = target: T45, 4H2223-bN; assay: two-hybrid library CCNG1
T45 chain: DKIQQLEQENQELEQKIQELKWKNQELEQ

[46] = target: T46, 4H2588-bN; assay: two-hybrid library CCNG1
T46 chain: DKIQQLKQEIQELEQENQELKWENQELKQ

[47] = target: T47, 4H319-bN; assay: two-hybrid library CCNG1
T47 chain: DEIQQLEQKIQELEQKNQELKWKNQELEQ

[48] = target: T48, 4H477-bN; assay: two-hybrid library CCNG1
T48 chain: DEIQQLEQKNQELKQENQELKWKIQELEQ

[49] = target: T49, 4H2717-bN; assay: two-hybrid library CCNG1
T49 chain: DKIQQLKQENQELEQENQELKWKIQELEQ

## DENAALEAEIAALKAKNAALKAEIAALKG [4H1146-AA]
[1]
  interaction score: -1.65
[2]
  interaction score: 1.71
[3]
  interaction score: -1.39
[4]
  interaction score: 2.01
[5]
  interaction score: -0.715
[6]
  interaction score: -1.58
[7]
  interaction score: -0.861
[8]
  interaction score: -0.991
[9]
  interaction score: -1.56
[10]
  interaction score: -0.198
[11]
  interaction score: 2.05
[12]
  interaction score: -1.21
[13]
  interaction score: -1.98
[14]
  interaction score: 0.0108
[15]
  interaction score: -0.764
[16]
  interaction score: 0.452
[17]
  interaction score: -0.725
[18]
  interaction score: -1.15
[19]
  interaction score: -1.22
[20]
  interaction score: -0.436
[21]
  interaction score: -1.69
[22]
  interaction score: -1.14
[23]
  interaction score: 0.0699
[24]
  interaction score: 0.627
[25]
  interaction score: 0.618
[26]
  interaction score: -0.0838
[27]
  interaction score: -0.562
[28]
  interaction score: -0.542
[29]
  interaction score: -0.598
[30]
  interaction score: -1.53
[31]
  interaction score: -1.57
[32]
  interaction score: -0.0174

## DKIQQLEQENQELEQKIQELKWKNQELEQ [4H2223-bN]
[33]
  interaction score: -0.0421
[34]
  interaction score: -0.721
[35]
  interaction score: 0.0621
[36]
  interaction score: -0.362
[37]
  interaction score: -0.691
[38]
  interaction score: 1.04
[39]
  interaction score: -0.818
[40]
  interaction score: -0.393
[41]
  interaction score: -1.33
[42]
  interaction score: -0.775
[43]
  interaction score: 0.539
[44]
  interaction score: -0.941
[45]
  interaction score: 0.483
[46]
  interaction score: 0.654
[47]
  interaction score: -0.943
[48]
  interaction score: -1.55
[49]
  interaction score: -2.14
